Two molecules from patent US20240228656A1 can be followed below.

In this assay the target is cynomolgus EpCAM protein (cynomolgus). Kind of assay: colorimetric ELISA. In general terms: In an ELISA, binding on a coated surface is turned into a signal by an enzyme label.
Chain of cynomolgus EpCAM protein (cynomolgus) (Q1WER1 27-265 limits assumed): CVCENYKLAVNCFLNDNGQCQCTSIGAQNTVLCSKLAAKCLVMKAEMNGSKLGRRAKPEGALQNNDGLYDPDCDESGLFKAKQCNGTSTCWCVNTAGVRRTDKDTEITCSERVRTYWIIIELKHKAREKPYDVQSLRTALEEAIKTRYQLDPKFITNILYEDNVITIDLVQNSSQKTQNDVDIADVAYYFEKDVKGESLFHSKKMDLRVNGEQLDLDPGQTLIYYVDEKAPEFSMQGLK

B1: EPL145 (VHH)
VHH: QVQLQESGGGLVQAGGSLRLSCAASGFIFRAASMGWFRQSPGNERELVATVSSGGFTNYADSVKGRFTISRDNAKNTVYLQMNSLKPEDTAVYFCGATFVRSDGHHTIYGQGTQVTVSS
As to B1, the Cynomolgus EpCAM/Control stood at 2 and the ELISA absorbance came out at 0.4 absorbance.

B2: EPL159 (VHH)
VHH: QVQLQESGGGLVQAGGSLRLSCAASGFAFGNHWMYWYRQAPGRGRELVASISSGGSTNYVDSVKGRFTISRDNARNTVYLQMYSLKPEDTAVYYCGTSDNWGQGTQVTVSS
For the molecule B2, the Cynomolgus EpCAM/Control stood at 2 and the ELISA absorbance was 0.2 absorbance.
